The source of these data is US20140235820A1, “METHODS AND COMPOSITIONS FOR MODULATING THE Wnt PATHWAY” (Genentech, Inc., priority 2010, published 2014).

For test [1], the target named is T1, LRP6 E1E2 variants with LRP5 BMD substitutions (Homo sapiens, UniProt O75581, N185S).
T1 construct: construct E1E2-amino acids A20-E631 of LPR6; made in house; host or cells: insect cells (Tni, baculovirus)
T1 sequence (O75581 20-631 N185S): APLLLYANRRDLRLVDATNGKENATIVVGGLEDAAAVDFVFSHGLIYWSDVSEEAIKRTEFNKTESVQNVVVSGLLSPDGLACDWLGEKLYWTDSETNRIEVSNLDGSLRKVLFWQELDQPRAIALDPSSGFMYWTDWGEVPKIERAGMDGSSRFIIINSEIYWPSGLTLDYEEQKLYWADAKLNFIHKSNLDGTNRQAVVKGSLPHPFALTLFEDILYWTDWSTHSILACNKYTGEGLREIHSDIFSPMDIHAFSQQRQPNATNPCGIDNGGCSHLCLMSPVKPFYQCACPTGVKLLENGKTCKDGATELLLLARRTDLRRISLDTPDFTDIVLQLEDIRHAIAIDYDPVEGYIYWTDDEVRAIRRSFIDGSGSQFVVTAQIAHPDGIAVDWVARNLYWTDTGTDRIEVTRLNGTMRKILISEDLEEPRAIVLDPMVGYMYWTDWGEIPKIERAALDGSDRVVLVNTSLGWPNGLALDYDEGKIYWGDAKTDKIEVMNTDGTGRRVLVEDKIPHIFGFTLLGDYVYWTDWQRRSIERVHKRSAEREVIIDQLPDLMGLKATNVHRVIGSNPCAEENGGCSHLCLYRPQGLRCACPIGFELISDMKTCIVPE
Description: Steady-state affinity for LRP6 E1E2 variants carrying LRP5 BMD substitutions. The class given is binding. Conditions: LRP6 Asn185 to Ser vs wild type LRP6 E1E2. How it is done:
(§1) FIG. 13. Introduction of LRP5 BMD substitutions into LRP6 E1E2 lowers affinity for Wnt inhibitors. The five substitutions characterized are indicated on the y-axis. Steady-state affinity measurements were made for Wnt9b, Dkk1, and sclerostin binding to each of the LRP6 variants.
(§2) Binding kinetics were measured by biolayer interferometry using an Octet Red instrument (ForteBio) as previously described (11). Streptavidin (SA) biosensors were loaded with biotinylated hLRP6 in 50 mMTris, pH 8, 300 mM NaCl, 5% (v/v) glycerol, and 0.05% (w/v) Triton X-100. The loaded biosensors were washed in the same buffer before carrying out association and dissociation measurements for the indicated times. The Kd of each interaction was determined using steady state-analysis through the Octet Red software v6.3. Each reported value represents an average of three or more experiments at different concentrations, with a fitted experimental curve for which the square of the correlation coefficient (R^2) is above 0.96.
(§3) Cells transfected with LRP5 variants carrying BMD mutations show reduced binding to sclerostin and are less sensitive to sclerostin inhibition of Wnt10b or Wnt6 signaling (70). To further test the effects of the BMD substitutions, we introduced several of them into LRP6 E1E2, with the results shown in FIG. 13. LRP6 E1E2 Gly158Val could not be expressed in insect cells. […] Importantly, not only is the binding to sclerostin affected (70), but the binding of Dkk1 to its E1 interaction site is also impaired.

Test [2] relates to LRP6 E1E2 variants with LRP5 BMD substitutions. Described as above. It counts as binding, human. How it is done: as §1, §2, §3
Test [3] deals with T2, Wnt9b binding to LRP6 E1E4 (Homo sapiens, UniProt O75581).
T2 construct: construct E1E4-amino acids A20-Q1253 of LPR6; made in house; host or cells: Tni insect cells (baculovirus, secreted)
T2 sequence (O75581 20-1253): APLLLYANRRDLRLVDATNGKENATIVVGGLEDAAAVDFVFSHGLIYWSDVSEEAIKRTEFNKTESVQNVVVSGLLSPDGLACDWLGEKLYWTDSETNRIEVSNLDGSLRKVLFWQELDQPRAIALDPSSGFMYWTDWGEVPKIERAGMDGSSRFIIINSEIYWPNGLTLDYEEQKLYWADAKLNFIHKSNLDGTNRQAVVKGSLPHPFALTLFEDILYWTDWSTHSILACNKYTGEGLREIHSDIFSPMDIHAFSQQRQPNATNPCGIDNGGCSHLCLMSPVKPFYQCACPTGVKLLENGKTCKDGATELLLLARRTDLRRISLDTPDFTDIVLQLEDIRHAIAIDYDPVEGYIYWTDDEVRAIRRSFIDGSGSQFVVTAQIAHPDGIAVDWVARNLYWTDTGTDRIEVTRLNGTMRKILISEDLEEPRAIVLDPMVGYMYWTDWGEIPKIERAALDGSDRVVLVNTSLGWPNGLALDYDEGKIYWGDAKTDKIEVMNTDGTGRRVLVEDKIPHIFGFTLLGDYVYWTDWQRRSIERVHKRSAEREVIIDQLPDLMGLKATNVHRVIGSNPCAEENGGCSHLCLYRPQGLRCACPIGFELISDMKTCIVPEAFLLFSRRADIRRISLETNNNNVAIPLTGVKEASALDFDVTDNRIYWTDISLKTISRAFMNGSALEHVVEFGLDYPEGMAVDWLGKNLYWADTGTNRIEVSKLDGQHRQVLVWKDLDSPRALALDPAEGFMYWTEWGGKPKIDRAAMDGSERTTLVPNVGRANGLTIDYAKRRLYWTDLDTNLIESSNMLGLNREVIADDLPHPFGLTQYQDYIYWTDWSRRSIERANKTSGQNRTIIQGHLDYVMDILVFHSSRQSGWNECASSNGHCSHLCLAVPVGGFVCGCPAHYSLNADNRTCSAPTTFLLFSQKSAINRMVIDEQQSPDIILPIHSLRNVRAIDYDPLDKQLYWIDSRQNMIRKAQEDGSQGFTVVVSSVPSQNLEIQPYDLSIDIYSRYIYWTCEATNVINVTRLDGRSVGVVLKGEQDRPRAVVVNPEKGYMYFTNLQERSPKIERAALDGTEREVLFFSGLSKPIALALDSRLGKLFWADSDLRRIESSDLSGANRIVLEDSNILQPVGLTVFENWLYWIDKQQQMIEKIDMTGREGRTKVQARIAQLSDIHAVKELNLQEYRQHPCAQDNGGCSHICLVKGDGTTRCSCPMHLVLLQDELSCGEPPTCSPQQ
In words: Wnt9b binding to LRP6 E1E4 in presence of inhibitor. The settings on record: inhibitor 125 nM, Wnt 125 nM. How it is done: FIG. 11. Wnt binding to LRP6 E1E4 in the presence or absence of Dkk1 or sclerostin.
as §2
Wnt9b also binds to the E1E2 region but not to the E3E4 region (11). Accordingly, sclerostin inhibits Wnt9b binding to LRP6 E1E4 (FIG. 11). […] Accordingly, Dkk1 inhibits the binding of both Wnt3a and Wnt9b to LRP6 E1E4 (FIG. 11).

For “sclerostin: Sclerostin protein, Wnt pathway inhibitor, expressed in insect cells (LPNAIGR)”, the “loss in affinity for LRP6 E1E2 Asn185Ser” value in test [1] is recorded as 59 fold. Moreover, the “effect of LRP6 BMD mutations on binding to LRP6 E1E2 (in words)” value in test [2] was “disrupt the binding”. In addition, the “inhibition of Wnt9b binding to LRP6 E1E4” value in test [3] was “inhibits”.
As for “Dkk1: Dickkopf 1 protein, Wnt pathway inhibitor, expressed in insect cells (NSNAIKN)”, in test [1], the “loss in affinity for LRP6 E1E2 Asn185Ser” value was 183 fold. For the same substance, the “effect of LRP6 BMD mutations on binding to LRP6 E1E2 (in words)” value in test [2] is on record as “disrupt the binding”. Further, the “inhibition of Wnt9b binding to LRP6 E1E4” value in test [3] is on record as “inhibits”.
